Substrate in this data set: Cc1cc(=O)oc2cc(O[C@@H]3O[C@H](CO)[C@@H](O[C@@H]4O[C@H](CO)[C@@H](O)[C@H](O)[C@H]4O)[C@H](O)[C@H]3O)ccc12
Kind of data set: Michaelis-Menten kinetics of purified E1 (produced in P. pastoris, IMAC purified): cleavage of MUC to cellobiose and MU at various temperatures. It counts as biochemical, Acidothermus cellulolyticus. As to conditions: substrate MUC, from Lineweaver-Burk fit. The protocol:
Endoglucanase activity assay: Endoglucanase (E1) cleaves methylumbelliferyl-tagged cellobiose (MUC), releasing methylumbelliferone (MU). The MU fluorescence can be measured to determine E1 activity. The relative fluorescence readings of 0.024 to 3.0 μM MU solutions were used to create a linear standard curve. Samples containing E1 were diluted so the concentration of MU released fell within the standard curve. A 60 μl aliquot of diluted supernatant was added to 540 μl of acetate buffer (200 mM acetate, pH 5.5, 100 mM NaCl) and 200 μl of substrate (500 μM MUC). 200 μl of reaction was sampled at time zero and after 30 minutes and added to 800 μl of stop buffer (150 mM glycine, pH 10). The change in fluorescence over time was measured with a VersaFluor fluorometer (Bio-Rad). Fluorescence was converted to an activity, and the specific activity reported in the literature was used to approximate the concentration of E1 in Pichia supernatants. The Michaelis-Menten kinetic parameters of purified endoglucanase were determined. The E1 was produced in P. pastoris and purified by IMAC (immobilized metal affinity chromatography). E1 cleaves the substrate (MUC) into cellobiose and a fluorophore (MU), the concentration of which can be monitored over time. When run at 65° C. and […] substrate, this is the reaction used for the activity assay for E1 in plant extracts and yeast cultures. In this set of experiments, the substrate concentration was varied to determine the kinetic parameters at different temperatures. The rate for a reaction displaying Michaelis-Menten kinetics is shown in Equation 1. The rate depends on the catalysis rate (kcat), the total enzyme concentration (ET), the adsorption/desorption rates which are lumped into the Michaelis-Menten constant (KM), and the substrate concentration (S). At high substrate concentrations (S>>KM), the rate approaches a maximum, and […] is often written as Vmax. The parameters Vmax and KM can be determined experimentally by varying the substrate concentration (S) and measuring the reaction rate (V) at each concentration. Equation 1 can be rearranged as a linear equation (Equation 2). When the reciprocal of the reaction rate (V) is plotted against the reciprocal of the substrate concentration (S), a line fitting the data points can be used to determine KM/Vmax (the slope) and 1/Vmax (y-intercept). A Bradford assay was used to determine the E1 protein concentration in each sample, and this value of ET was used to calculate the kcat values in Table 1. Table 1 depicts a summary of Michaelis-Menten parameters for E1-catalyzed degradation of MUC to MU at various temperatures.

Where [1] appears, read: other: 93 °C, uncertainty approaches 100%, not used further, 93.0 °C.

The term Km denotes the concentration of substrate that gives half-maximal velocity. What is called Vmax is the rate approached at saturating substrate.

B1: Acidothermus cellulolyticus β-1,4-endoglucanase E1 (P. pastoris-produced) (Acidothermus cellulolyticus 11B) (protein)
chain: AGGGYWHTSGREILDANNVPVRIAGINWFGFETCNYVVHGLWSRDYRSMLDQIKSLGYNTIRLPYSDDILKPGTMPNSINFYQMNQDLQGLTSLQVMDKIVAYAGQIGLRIILDRHRPDCSGQSALWYTSSVSEATWISDLQALAQRYKGNPTVVGFDLHNEPHDPACWGCGDPSIDWRLAAERAGNAVLSVNPNLLIFVEGVQSYNGDSYWWGGNLQGAGQYPVVLNVPNRLVYSAHDYATSVYPQTWFSDPTFPNNMPGIWNKNWGYLFNQNIAPVWLGEFGTTLQSTTDQTWLKTLVQYLRPTAQYGADSFQWTFWSWNPDSGDTGGILKDDWQTVDTVKDGYLAPIKSSIFDPVGASASPSSQPSPSVSPSPSPSPSASRTPTPTPTPTASPTPTLTPTATPTPTASPTPSPTAASGARCTASYQVNSDWGNGFTVTVAVTNSGSVATKTWTVSWTFGGNQTITNSWNAAVTQNGQSVTARNMSYNNVIQPGQNTTFGFQASYTGSNAAPTVACAASHHHHHH
On to B1, for which the Km runs as follows: (other: 50 °C, 50.0 °C) 59 ± 3 µM; (other: 65 °C, 65.0 °C) 131 ± 4 µM; (other: 80 °C, 80.0 °C) 372 ± 50 µM; under setting [1], 576 ± 570 µM. Moreover, the Vmax worked out at 0.083 µM/min (other: 50 °C, 50.0 °C); 0.242 µM/min (other: 65 °C, 65.0 °C); 0.523 µM/min (other: 80 °C, 80.0 °C); 0.229 µM/min under setting [1].

Source of the values: patent US8993839B2, “Plant-based production of heterologous proteins” (The Regents of the University of California, priority 2010, dated 2015).
